Laboratory results reported in article PMC4256255 (PLoS Pathogens, 2014).

Target: the molecule itself
Assay: SEC-MALS

B1: D8 Δ262 construct (amino acids 1–261, lacking Cys 262) (domain or fragment)
chain: MPQQLSPINIETKKAISNARLKPLDIHYNESKPTTIQNTGKLVRINFKGGYISGGFLPNEYVLSSLHIYWGKEDDYGSNHLIDVYKYSGEINLVHWNKKKYSSYEEAKKHDDGLIIISIFLQVLDHKNVYFQKIVNQLDSIRSANTSAPFDSVFYLDNLLPSKLDYFTYLGTTINHSADAVWIIFPTPINIHSDQLSKFRTLLSSSNHDGKPHYITENYRNPYKLNDDTQVYYSGEIIRAATTSPARENYFMRWLSDLRET
  stoichiometry N: 6
